Measured values reported in the Human Domainome abundance scans (Beltran et al. 2025).
± gives the uncertainty stated by the source.

B1: POU domain, class 4, transcription factor 3, residues 185 to 256; numbered along this chain, Q15319 (parent)
chain: RELEAFAERFKQRRIKLGVTQADVGAALANLKIPGVGSLSQSTICRFESLTLSHNNMIALKPVLQAWLEEAE

Variants of: B1
Assay: abundance fitness (aPCA) (normalised: wild type 0, dead -1); higher = more abundant; growth selection in yeast, the domain comes from the species named
Settings: Homo sapiens

Variant | abundance fitness
RELEAFAERFKQRRIKLGVTQADVGAALANLKIPGVGSLSQSTICRFERLTLSHNNMIALKPVLQAWLEEAE | -0.136 ± 0.066
RELEAFAERFKQRRIKLGVTQADVGAALANLKIPGVGSLSQSTICRFEMLTLSHNNMIALKPVLQAWLEEAE | -0.117 ± 0.11
RELEAFAERFKQRRIKLGVTQADVGAALANLKIPGVGSLSQSTICRFEVLTLSHNNMIALKPVLQAWLEEAE | -0.718 ± 0.11
RELEAFAERFKQRRIKLGVTQADVGAALANLKIPGVGSLSQSTICRFEYLTLSHNNMIALKPVLQAWLEEAE | -0.209 ± 0.15
RELEAFAERFKQRRIKLGVTQADVGAALANLKIPGVGSLSQSTICRFEQLTLSHNNMIALKPVLQAWLEEAE | -0.027 ± 0.075
RELEAFAERFKQRRIKLGVTQADVGAALANLKIPGVGSLSQSTICRFETLTLSHNNMIALKPVLQAWLEEAE | 0.037 ± 0.06
RELEAFAERFKQRRIKLGVTQADVGAALANLKIPGVGSLSQSTICRFENLTLSHNNMIALKPVLQAWLEEAE | -0.005 ± 0.13
RELEAFAERFKQRRIKLGVTQADVGAALANLKIPGVGSLSQSTICRFEWLTLSHNNMIALKPVLQAWLEEAE | -0.884 ± 0.31
RELEAFAERFKQRRIKLGVTQADVGAALANLKIPGVGSLSQSTICRFESLTLSHNNMAALKPVLQAWLEEAE | -0.262 ± 0.32
RELEAFAERFKQRRIKLGVTQADVGAALANLKIPGVGSLSQSTICRFESLTLSHNNMFALKPVLQAWLEEAE | 0.078 ± 0.14
RELEAFAERFKQRRIKLGVTQADVGAALANLKIPGVGSLSQSTICRFESLTLSHNNMEALKPVLQAWLEEAE | 0.071 ± 0.34
RELEAFAERFKQRRIKLGVTQADVGAALANLKIPGVGSLSQSTICRFESLTLSHNNMDALKPVLQAWLEEAE | 0.215 ± 0.45
RELEAFAERFKQRRIKLGVTQADVGAALANLKIPGVGSLSQSTICRFESLTLSHNNMHALKPVLQAWLEEAE | -0.033 ± 0.1
RELEAFAERFKQRRIKLGVTQADVGAALANLKIPGVGSLSQSTICRFESLTLSHNNMKALKPVLQAWLEEAE | -0.058 ± 0.12
RELEAFAERFKQRRIKLGVTQADVGAALANLKIPGVGSLSQSTICRFESKTLSHNNMIALKPVLQAWLEEAE | -0.012 ± 0.073
RELEAFAERFKQRRIKLGVTQADVGAALANLKIPGVGSLSQSTICRFESGTLSHNNMIALKPVLQAWLEEAE | 0.043 ± 0.034
RELEAFAERFKQRRIKLGVTQADVGAALANLKIPGVGSLSQSTICRFESSTLSHNNMIALKPVLQAWLEEAE | 0.041 ± 0.22
RELEAFAERFKQRRIKLGVTQADVGAALANLKIPGVGSLSQSTICRFESDTLSHNNMIALKPVLQAWLEEAE | -0.139 ± 0.3
RELEAFAERFKQRRIKLGVTQADVGAALANLKIPGVGSLSQSTICRFESETLSHNNMIALKPVLQAWLEEAE | -0.154 ± 0.063

Variant | abundance fitness
RELEAFAERFKQRRIKLGVTQADVGAALANLKIPGVGSLSQSTICRFESTTLSHNNMIALKPVLQAWLEEAE | -0.101 ± 0.027
RELEAFAERFKQRRIKLGVTQADVGAALANLKIPGVGSLSQSTICRFESQTLSHNNMIALKPVLQAWLEEAE | 0.124 ± 0.07
RELEAFAERFKQRRIKLGVTQADVGAALANLKIPGVGSLSQSTICRFESATLSHNNMIALKPVLQAWLEEAE | 0.068 ± 0.039
RELEAFAERFKQRRIKLGVTQADVGAALANLKIPGVGSLSQSTICRFESPTLSHNNMIALKPVLQAWLEEAE | -1.02 ± 0.14
RELEAFAERFKQRRIKLGVTQADVGAALANLKIPGVGSLSQSTICRFESRTLSHNNMIALKPVLQAWLEEAE | 0.053 ± 0.03
RELEAFAERFKQRRIKLGVTQADVGAALANLKIPGVGSLSQSTICRFESWTLSHNNMIALKPVLQAWLEEAE | -0.717 ± 0.21
RELEAFAERFKQRRIKLGVTQADVGAALANLKIPGVGSLSQSTICRFESLTMSHNNMIALKPVLQAWLEEAE | -0.55 ± 0.47
RELEAFAERFKQRRIKLGVTQADVGAALANLKIPGVGSLSQSTICRFESLTPSHNNMIALKPVLQAWLEEAE | -0.984 ± 0.49
RELEAFAERFKQRRIKLGVTQADVGAALANLKIPGVGSLSQSTICRFESLTLSHNKMIALKPVLQAWLEEAE | -0.109 ± 0.24
RELEAFAERFKQRRIKLGVTQADVGAALANLKIPGVGSLSQSTICRFESLTLSHNTMIALKPVLQAWLEEAE | -0.588 ± 0.43
RELEAFAERFKQRRIKLGVTQADVGAALANLKIPGVGSLSQSTICRFESLTLSHNGMIALKPVLQAWLEEAE | -0.035 ± 0.41
RELEAFAERFKQRRIKLGVTQADVGAALANLKIPGVGSLSQSTICRFESLTLSHNSMIALKPVLQAWLEEAE | 0.089 ± 0.13
RELEAFAERFKQRRIKLGVTQADVGAALANLKIPGVGSLSQSTICRFESLTLSHNIMIALKPVLQAWLEEAE | -0.157 ± 0.21
RELEAFAERFKQRRIKLGVTQADVGAALANLKIPGVGSLSQSTICRFESLTLSHNFMIALKPVLQAWLEEAE | -0.628 ± 0.078
RELEAFAERFKQRRIKLGVTQADVGAALANLKIPGVGSLSQSTICRFESLTLSHNDMIALKPVLQAWLEEAE | -0.355 ± 0.41
RELEAFAERFKQRRIKLGVTQADVGAALANLKIPGVGSLSQSTICRFESLTLSHNWMIALKPVLQAWLEEAE | 0.101 ± 0.21
RELEAFAERFKQRRIKLGVTQADVGAALANLKIPGVGSLSQSTICRFESLTLSHNYMIALKPVLQAWLEEAE | -0.096 ± 0.28
RELEAFAERFKQRRIKLGVTQADVGAALANLKIPGVGSLSQSTICRFESLTLSHNLMIALKPVLQAWLEEAE | 0.105 ± 0.13
RELEAFAERFKQRRIKLGVTQADVGAALANLKIPGVGSLSQSTICRFESLTLSHNCMIALKPVLQAWLEEAE | -0.036 ± 0.25
